Assay results as given in US6861508B2, “Transcriptional intermediary factor-2” (Institut National de la Sante et de la Recherche Medicale, priority 1996, dated 2005).

T1: (His)6-TIF2.1, E. coli-expressed purified recombinant TIF2.1 (human, UniProt Q15596 624-1287)
T1 construct: also called His-tagged TIF2.1; purified TIF2.1 protein; not shown: (His)6 tag of pET15b
T1 sequence: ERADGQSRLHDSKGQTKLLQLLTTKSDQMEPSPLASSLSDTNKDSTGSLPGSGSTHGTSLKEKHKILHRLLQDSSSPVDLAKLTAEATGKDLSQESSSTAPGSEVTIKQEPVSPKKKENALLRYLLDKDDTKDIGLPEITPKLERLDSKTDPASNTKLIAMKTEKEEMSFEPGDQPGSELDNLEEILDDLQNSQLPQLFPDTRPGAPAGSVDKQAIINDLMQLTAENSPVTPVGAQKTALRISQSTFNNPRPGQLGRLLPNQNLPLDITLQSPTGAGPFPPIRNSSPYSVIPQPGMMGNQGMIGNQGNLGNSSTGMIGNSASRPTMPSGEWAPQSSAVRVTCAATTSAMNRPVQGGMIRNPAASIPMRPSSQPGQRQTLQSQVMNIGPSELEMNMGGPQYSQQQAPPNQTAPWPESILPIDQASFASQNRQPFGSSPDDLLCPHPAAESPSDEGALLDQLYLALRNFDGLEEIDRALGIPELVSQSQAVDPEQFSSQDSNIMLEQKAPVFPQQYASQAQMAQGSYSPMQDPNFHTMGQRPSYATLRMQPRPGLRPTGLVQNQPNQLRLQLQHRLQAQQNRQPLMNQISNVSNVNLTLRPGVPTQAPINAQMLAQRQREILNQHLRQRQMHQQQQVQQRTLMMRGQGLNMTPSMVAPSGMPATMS

T2: GST-hERα(DEF) (pGEX2T-hERα(DEF), amino acids 282-595) (human, UniProt P03372 282-595)
T2 construct: range 282-595; Bacterially produced; also used 32P-labelled as Far-Western probe; also called GST-ER; GST-ER(DEF); not shown: glutathione-S-transferase (GST) of pGEX2T (Pharmacia)
T2 sequence (looked up): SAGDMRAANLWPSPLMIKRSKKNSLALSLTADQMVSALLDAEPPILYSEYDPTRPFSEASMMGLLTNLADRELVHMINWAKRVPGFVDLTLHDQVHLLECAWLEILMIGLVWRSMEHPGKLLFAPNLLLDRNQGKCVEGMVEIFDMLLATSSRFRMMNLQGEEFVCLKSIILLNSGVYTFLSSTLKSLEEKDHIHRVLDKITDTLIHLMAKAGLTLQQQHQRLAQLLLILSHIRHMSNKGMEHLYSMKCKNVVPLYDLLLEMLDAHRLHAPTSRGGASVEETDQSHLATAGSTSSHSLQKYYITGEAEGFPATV

T3: GST-hRARα(DEF) (pGEX2T-hRARα(DEF), amino acids 153-462) (human, UniProt P10276 153-462)
T3 construct: range 153-462; Bacterially produced; also called GST-RAR; GST-RARα(DEF); not shown: glutathione-S-transferase (GST) of pGEX2T (Pharmacia)
T3 sequence (looked up): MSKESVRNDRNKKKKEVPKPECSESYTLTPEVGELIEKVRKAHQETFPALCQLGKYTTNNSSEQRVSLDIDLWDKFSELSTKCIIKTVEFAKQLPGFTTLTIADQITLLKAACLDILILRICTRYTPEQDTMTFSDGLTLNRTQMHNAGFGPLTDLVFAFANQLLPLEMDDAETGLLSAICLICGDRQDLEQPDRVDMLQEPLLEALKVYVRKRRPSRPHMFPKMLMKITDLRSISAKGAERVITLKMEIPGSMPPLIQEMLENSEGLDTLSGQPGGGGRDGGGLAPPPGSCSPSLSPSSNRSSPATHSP

B1: GST-hTAFII20 (printed hTAFn20) (other, human, UniProt Q16514 1-161, looked up)
chain: MNQFGPSALINLSNFSSIKPEPASTPPQGSMANSTAVVKIPGTPGAGGRLSPENNQVLTKKKLQDLVREVDPNEQLDEDVEEMLLQIADDFIESVVTAACQLARHRKSSTLEVKDVQLHLERQWNMWIPGFGSEEIRPYKKACTTEAHKQRMALIRKTTKK
notes: not shown: glutathione-S-transferase (GST)
B2: GST-hTAFII55 (printed hTAFn55) (other, human, UniProt Q15545 1-349, looked up)
chain: MSKSKDDAPHELESQFILRLPPEYASTVRRAVQSGHVNLKDRLTIELHPDGRHGIVRVDRVPLASKLVDLPCVMESLKTIDKKTFYKTADICQMLVSTVDGDLYPPVEEPVASTDPKASKKKDKDKEKKFIWNHGITLPLKNVRKRRFRKTAKKKYIESPDVEKEVKRLLSTDAEAVSTRWEIIAEDETKEAENQGLDISSPGMSGHRQGHDSLEHDELREIFNDLSSSSEDEDETQHQDEEDINIIDTEEDLERQLQDKLNESDEQHQENEGTNQLVMGIQKQIDNMKGKLQETQDRAKRQEDLIMKVENLALKNRFQAVLDELKQKEDREKEQLSSLQEELESLLEK
notes: as for B1
B3: TIF2.8 (TIF2 amino acids 1010-1179) (other)
chain: GPSELEMNMGGPQYSQQQAPPNQTAPWPESILPIDQASFASQNRQPFGSSPDDLLCPHPAAESPSDEGALLDQLYLALRNFDGLEEIDRALGIPELVSQSQAVDPEQFSSQDSNIMLEQKAPVFPQQYASQAQMAQGSYSPMQDPNFHTMGQRPSYATLRMQPRPGLRPT
notes: In-vitro-translated; also called minimal AD1
B4: TIF2.12 (TIF2 amino acids 940-1131) (other)
chain: IGNSASRPTMPSGEWAPQSSAVRVTCAATTSAMNRPVQGGMIRNPAASIPMRPSSQPGQRQTLQSQVMNIGPSELEMNMGGPQYSQQQAPPNQTAPWPESILPIDQASFASQNRQPFGSSPDDLLCPHPAAESPSDEGALLDQLYLALRNFDGLEEIDRALGIPELVSQSQAVDPEQFSSQDSNIMLEQKAP
notes: In-vitro-translated
B5: TIF2.13: TIF2 fragment Pro1011 to Ser1122 (protein, UniProt Q15596 1011-1122, looked up, fragment)
chain: PSELEMNMGGPQYSQQQAPPNQTAPWPESILPIDQASFASQNRQPFGSSPDDLLCPHPAAESPSDEGALLDQLYLALRNFDGLEEIDRALGIPELVSQSQAVDPEQFSSQDS

How the values were obtained:
[1] = biological target: T1, (His)6-TIF2.1, E. coli-expressed …; experiment: GST interaction assay (not shown)
ER, RARα and RXRα LBDs = experiment: GST pull-down of TIF2 polypeptides with NR LBDs; type: binding; conditions: in vitro, with or without 10^−6 M ligand
Method: (b) Mapping of the nuclear receptor-interacting domain of TIF2.
(c-d) Interaction of TIF2 NID mutants with NRs in vitro. […] For quantification of point mutant interactions, see below.
(e-f) Effect of TIF2 NID point mutations on stimulation of NR AF-2 activity. Cos-1 cells were cotransfected with 1 μg of the (17m)5-TATA-CAT reporter, 0.2 μg of GAL-hERα(EF) or GAL-mRXRα(DE), and 2.5 μg of the TIF2.1 wildtype or mutated fragments, as indicated. […] Each bar represents the mean value obtained from at least three (interaction) or at least four (transactivation) experiments, respectively; standard deviations are indicated. Note that the absolute values for TIF2.1 wildtype activity varied by ±16% when cotransfected with GAL-hERα(EF) and by ±34% when cotransfected with GAL-mRXRα(DE). In the in-vitro-interaction assays, the affinity of the TIF2.1 wildtype standard varied by less than ±25%. Expression levels of TIF2 mutants in the cells were verified by Western blot (not shown) with mouse monoclonal antibody 3Ti3F1, which is directed against an epitope outside the mutated area.
To further delineate the TIF2 NR interaction domain (NID), we studied the interaction between a series of TIF2 deletion mutants and the ER or RARα LBDs, using GST-fusion protein-based in vitro assays. In both cases, an NWD was mapped to the central region of TIF2 (amino acids 624-869 in mutant TIF2.5; see FIGS. 7a and b). No additional NWD could be identified in the N- or C-termini of TIF2 (FIGS. 7a and b; mutants TIF2.0, TIF2.2 and TIF2.7). Note that, in contrast, SRC-1, a paralogue of TIF2, apparently harbours two distinct non-contiguous NIDs located in the central and C-terminal regions (Onate, S. A. et al., Science 270:1354-1357 (1995), Yao, T. P. et al., Proc. Natl. Acad. Sci. USA 93:10626-10631 (1996); Zhu, Y. et al., Gene Epression 6:185-195 (1996)).

[2] = biological target: T2, GST-hERα(DEF) (pGEX2T-hERα(DEF), amino …); experiment: GST pull-down with 35S in-vitro-translated TIF2 polypeptides (FIG. 7a-b)
[3] = biological target: T3, GST-hRARα(DEF) (pGEX2T-hRARα(DEF), …); experiment: as above
GAL4 reporter = experiment: GAL4 DBD-TIF2 fusion CAT reporter transactivation assay; type: cell-based; conditions: for transcriptional activation of GAL4 reporter by GAL4 DBD fusion: Cos-1 and/or HeLa cells
Method: (a) HeLa cells were cotransfected with 1 μg (17m)5-βG-CAT and 10 μg GAL(1-147) or 1,3 and 10 μg GAL(1-147)-TIF2.1, respectively.
(c) Analysis of the transcriptional activity of GAL-TIF2 fusion proteins. Cos-1 and HeLa cells were transfected with 3 lag of plasmids expressing different regions of TIF2 fised to the DNA-binding domain of the yeast transcription factor GALA together with 1 μg of the (7m)5-G-CAT reporterplasmid. CAT assays were performed as described (Bocquel, M. T. et al., Nucl Acids Res. 17:2581-2595 (1989)). Quantitative data on CAT reporter expression were obtained either by phosphoimager analysis (BAS2000, Fuji) of ^14C-labeled CAT reaction products separated by thin-layer chromatography, or using the CAT ELISA Kit (Boehringer Mannheim). In all cases, CAT activities were normalized to the β-galactosidase concentrations resulting from cotransfection of 1 μg of pCMVPGal (gift from T. Lerouge) as internal control. Fold inductions above the GAL4 DBD value are indicated. The mean and standard deviation of at least three experiments are shown. A representative Western blot, illustrating the expression levels of the GAL4-TIF2 fusion proteins, expressed from 10 μg of the corresponding expression vectors, is shown on the left.
(b) Transcriptional activation of TIF2 AF-1 mutants. Cos-1 and HeLa cells were cotransfected with 3 μg of plasmids expressing different mutants of the TIF2 AF-1 fused to the DNA-binding domain of the yeast transcription factor GAL4 together with 1 μg of the (17m)5-G-CAT reporter plasmid. Fold inductions above the activation seen with the GAL4 DBD alone are indicated. The values represent the mean of at least three experiments.
(a) Transcriptional activation by TIF2.13 and TIF2.13 mutants. Cos-1 and HeLa cells were cotransfected with 3 μg of plasmids expressing the TIF2.13 region and the indicated TIF2.13 mutants fused to the DNA-binding domain of the yeast transcription factor GALA together with 1 μg of the (17m)5-G-CAT reporter plasmid. Fold inductions above the GAL4 DBD 1-fold value are indicated. The mean and standard deviation obtained from at least four experiments are shown. The expression levels of the GAL4-TIF2.13 fusion proteins were confirmed by western blotting (data not shown).
Transient transfections of HeLa and Cos-1 cells were performed as described (Gronemeyer et al., (1987); Bocquel, M. T. et al., Nucl. Acids Res. 17:2581-2595 (1989)).

GAL-CBP = experiment: two hybrid analysis of CBP-TIF2 interaction in HeLa cells; type: cell-based
Method: (e) Two hybrid analysis of the CBP-TIF2 interaction in mammalian cells in vivo. HeLa cells were transfected with 0.2 μg of the GAL4 or GALA-CBP (expressing CBP residues 1872 to 2165) expression vectors together with 0.2 μg of the VP16 or VPI6-TF2 expression vectors in the presence of 2 μg of (17m)5-TATA-CAT reporter plasmid. Fold induction relative to the GAL-CBP activity is indicated. The mean of three experiments is shown; in each case, values varied by less than ±20%.
HeLa cells were transfected with 0.2 μg of GAL4 or GAL-CBP expression vectors together with 0.2 μg of VP16 or VP16-TIF2.13 expression vectors in the presence of 1 μg of (17m)5-TATA-CAT reporter plasmid. Data are represented as fold induction of the activity seen with GAL-CBP alone. The mean and standard, deviation obtained from ten experiments are shown. The expression levels were confirmed by Western blotting with antibodies directed against GAL4 DBD and VP16 AAD (data not shown).
Furthermore, it was reported that SRC-1, which belongs to the same gene family as TIF2, interacts with CBP and p300 (Kamei, Y. et al., Cell 85:403-414 (1996); Yao, T. P. et al., Proc. Natl. Acad. Sci. USA 93:10626-10631 (1996); Hanstein, B., et al., Proc. Natl. Acad Sci USA 93:11540-11545 (1996)). Using GST-fusion protein-based interaction and animal cell-based two hybrid assays, we therefore analyzed whether TIF2 could also interact with CBP. […] A GST-CBP fusion protein was expressed in E. coli and used for puU-down assays with in vitro translated TIF2 polypeptides (FIG. 7d).

Row | Molecule | binding result [1] | binding result [2] | binding result [3] | transcriptional activation of GAL4 reporter by GAL4 DBD fusion (GAL4 reporter) | other results
1 | B1 | no binding |  |  |  | 
2 | B2 | no binding |  |  |  | 
3 | B3 |  | no binding | no binding | able to activate transcription | binding to NRs (ER, RARα LBDs) (ER, RARα and RXRα LBDs): cannot bind NRs; increased transactivation relative to parent fragment (GAL4 reporter; Cos-1 cells): 2 fold; increased transactivation relative to parent fragment (GAL4 reporter; HeLa cells): 10 fold
4 | B4 |  | no binding | no binding |  | 
5 | B5 |  |  |  | potent transcriptional activity | interaction with GAL-CBP, two hybrid (GAL-CBP): also interacted with CBP in vivo
